Test results reported in patent US20240043514A1, “NOVEL METHOD FOR PRODUCING ANTIBODIES” (TSINGHUA UNIVERSITY, priority 2017, published 2024).

B1: CXCL16: Mouse chemokine (C-X-C motif) ligand 16 (protein, UniProt Q8BSU2 27-246, looked up)
C-X-C motif chemokine 16: NQGSVAGSCSCDRTISSGTQIPQGTLDHIRKYLKAFHRCPFFIRFQLQSKSVCGGSQDQWVRELVDCFERKECGTGHGKSFHHQKHLPQASTQTPEAAEGTPSDTSTPAHSQSTQHSTLPSGALSLNKEHTQPWEMTTLPSGYGLEARPEAEANEKQQDDRQQEAPGAGASTPAWVPVLSLLAIVFFLTAAMAYVLCNRRATQQNSAGLQLWYTPVEPRP
B2: CCL4: Recombinant Human C-C motif chemokine 4 (protein, UniProt P13236 24-92, looked up)
C-C motif chemokine 4: APMGSDPPTACCFSYTARKLPRNFVVDYYETSSLCSQPAVVFQTKRSKQVCADPSESWVQEYVYDLELN
B3: IL27: Recombinant Human Interleukin 27 (protein, UniProt Q8NEV9 29-243; Q14213 21-229, looked up)
Interleukin-27 subunit alpha: FPRPPGRPQLSLQELRREFTVSLHLARKLLSEVRGQAHRFAESHLPGVNLYLLPLGEQLPDVSLTFQAWRRLSDPERLCFISTTLQPFHALLGGLGTQGRWTNMERMQLWAMRLDLRDLQRHLRFQVLAAGFNLPEEEEEEEEEEEEERKGLLPGALGSALQGPAQVSWPQLLSTYRLLHSLELVLSRAVRELLLLSKAGHSVWPLGFPTLSPQP
Interleukin-27 subunit beta: RKGPPAALTLPRVQCRASRYPIAVDCSWTLPPAPNSTSPVSFIATYRLGMAARGHSWPCLQQTPTSTSCTITDVQLFSMAPYVLNVTAVHPWGSSSSFVPFITEHIIKPDPPEGVRLSPLAERQLQVQWEPPGSWPFPEIFSLKYWIRYKRQGAARFHRVGPIEATSFILRAVRPRARYYVQVAAQDLTDYGELSDWSLPATATMSLGK
B4: CXCL13: Recombinant Human chemokine (C-X-C motif) ligand 13 (protein, UniProt O43927 23-109, looked up)
C-X-C motif chemokine 13: VLEVYYTSLRCRCVQESSVFIPRRFIDRIQILPRGNGCPRKEIIVWKKNKSIVCVDPQAEWIQRMMEVLRKRSSSTLPVPVFKRKIP
B5: CCL8: Human chemokine (C-C motif) ligand 8 (protein, UniProt P80075 24-99, looked up)
C-C motif chemokine 8: QPDSVSIPITCCFNVINRKIPIQRLESYTRITNIQCPKEAVIFKTKRGKEVCADPKERWVRDSMKHLDQIFQNLKP

Test system: PBMCs
Experiment: In vitro immunization (IVI) of PBMCs, antigen-specific IgG/IgM production by ELISA
Assay type: cell-based, human
Conditions: for IgG production compared with Basic alone / IgM production compared with Basic alone: FIG. 19; for antigen specificity of antibody production (anti-OVA IgG vs anti-OVA IgM and anti-BSA IgG): basic + OVA, 14 days, FIGS. 20A-20C
Procedure: PBMCs were washed and diluted with PIV culture medium. Cell density was adjusted to 1*10^^7 cells/ml, treateder with 0.25 mM LLME for about 20 min. Discarded supernatant, and re-suspended cell with PIV culture medium. Adjusted cell density to 9*10^^5 cells/ml. […] Cultured the tissue for 7 days at 37° C., 5% CO2. Changed half of the medium and added factor cocktail on day 7. Cultured the cells for 7-21 days at 37° C., 5% CO2. Collected the supernatant on day 7, day 14, or day 21 for analysis of antibody production by ELISA, whereas the pellets are used for testing gene expression by PCR or RT-PCR. The collected cells were also tested in ELISpot assay for FACS analysis.
Exemplary IVI steps with addition of stimulate factors: • 1. Prepared PBMCs and treat them with LLME. • 2. […] Collected the cells and plate them into 96-well plate at a density of 6*10^4/well. • 4. […] The IgG and IgM level was examined with ELISA assay.
After day7 or day14 with addition of cytokines or antibody-enhancing composition and antigens, supernatants were harvested and added to antigen OVA-coated plates. After 2 hr incubation, a HRP-conjugated anti-human IgG or anti-human IgM was added, the amount of antigen-specific antibody was measured using TMB as substrate. The data represents the mean of 2 replicates; error bars represent SD. One representative data of 3 separate experiments is shown.
Plates were coated with antigen at 5 μg/ml overnight at 4° C. and washed them in PBST (containing 0.5% Tween-20). The plates were blocked with 5% BSA before addition of cell culture supernatants and horseradish peroxidase (HRP)-conjugated detection antibodies (dilutions: 1 in 2,500 for HRP-conjugated IgG-specific antibody (Jackson) and HRP-conjugated IgM-specific antibody. TMB substrates solution was used for measurement. […]
To further test effects of other cytokine or molecules on antibody production, a synthesized TLR7/8 agonist (50 nM and 500 nM) was added to the IVI system in the presence of antigen OVA (2 μg/ml).
An exemplary cytokine, IL1β, was tested. PBMCs were incubated in vitro with OVA, basic, and either some of the known stimulating factors ICOS, CD40L, TLR7/8 agonists or IL1β (in different doses) (1.5*10^^5 cell/well, 96 well plate). After 7 or 14 days, supernatants were harvested, and IgG/IgM antibody production was measured by ELISA assay.

Molecule | IgG production compared with Basic alone (in vitro for 14 days, OVA) | antigen specificity of antibody production (anti-OVA IgG vs anti-OVA IgM and anti-BSA IgG) | IgM production compared with Basic alone (in vitro for 14 days, OVA) | other results
CXCL2: Human C-X-C motif chemokine 2 | better than Basic alone |  |  | 
CXCL5: Human C-X-C motif chemokine 5 |  | similarly stimulate the activation of OVA-specific B cells |  | IgG production compared with known stimulating factors (CXCL5 20 ng/ml, in vitro for 14 days): inferior to TLR7/8 agonist but better than ICOS and CD40L; IgG production, dose relation (in vitro for 14 days, OVA, basic, FIG. 18): dose-dependent
IL1β: Human interleukin-1 beta, adipose tissue-derived secretory protein |  | promotes generation of anti-OVA IgG in a high level |  | 
IL21: interleukin-21, cytokine; part of 'basic' medium at 50 ng/ml |  |  |  | production of anti-TrkA antibody IgG / IgM by individual stimulants (antigen TrkA, individual stimulants, day 7, IL21 50 ng/ml): stimulated the production of antibody IgG but not IgM
B1 | better than Basic alone |  | better than Basic alone | 
B2 | better than Basic alone |  | better than Basic alone | 
B3 | better than Basic alone |  | better than Basic alone | 
B4 |  |  | better than Basic alone | 
B5 |  | similarly stimulate the activation of OVA-specific B cells |  | IgG production compared with known stimulating factors (OVA, basic, FIG. 17): inferior to TLR7/8 agonist but better than ICOS and CD40L
